Tests used:
Assay in all cases: peptide DELFIA ELISA;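 further: epitope mapping using overlapping 20-mer GUCY2C peptides covering residues 1-440, extracellular into transmembrane domain, coated at 20 µg/ml as target antigen and probed with antibodies or GUCY2C-CD3 bispecifics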
GUCY2C_ECD Peptide 57 = target: T1, GUCY2C_ECD Peptide 57 (human)
T1 peptide: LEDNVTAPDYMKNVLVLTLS
Method: (§1) Arrays were reconstituted with acetonitrile to 100 μg/ml and were then further diluted to 20 μg/ml with sodium carbonate/bicarbonate buffer. Purified antibodies or GUCY2c-CD3 bispecifics were then tested by Delfia ELISA for binding to the different peptides using Delfia ELISA methods previously discussed, with diluted peptides used as the target antigen.

GUCY2C_ECD Peptide 83 = target: T2, GUCY2C_ECD Peptide 83 (human)
T2 peptide: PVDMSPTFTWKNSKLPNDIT
Method: as §1

GUCY2C_ECD Peptide 87 = target: T3, GUCY2C_ECD Peptide 87 (human)
T3 peptide: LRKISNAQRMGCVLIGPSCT
Method: as §1

GUCY2C_ECD Peptide 51 = target: T4, GUCY2C_ECD Peptide 51 (human)
T4 peptide: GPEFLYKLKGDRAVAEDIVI
Method: as §1

GUCY2C_ECD Peptide 44 = target: T5, GUCY2C_ECD Peptide 44 (human)
T5 peptide: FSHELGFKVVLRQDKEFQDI
Method: as §1

GUCY2C_ECD Peptide 81 = target: T6, GUCY2C_ECD Peptide 81 (human)
T6 peptide: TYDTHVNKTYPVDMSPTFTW
Method: as §1

GUCY2C_ECD Peptide 80 = target: T7, GUCY2C_ECD Peptide 80 (human)
T7 peptide: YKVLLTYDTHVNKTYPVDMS
Method: as §1

GUCY2C_ECD Peptide 10 = target: T8, GUCY2C_ECD Peptide 10 (human)
T8 peptide: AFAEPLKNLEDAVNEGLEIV
Method: as §1

GUCY2C_ECD Peptide 41 = target: T9, GUCY2C_ECD Peptide 41 (human)
T9 peptide: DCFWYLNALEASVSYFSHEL
Method: as §1

GUCY2C_ECD Peptide 31 = target: T10, GUCY2C_ECD Peptide 31 (human)
T10 peptide: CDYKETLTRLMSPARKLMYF
Method: as §1

GUCY2C_ECD Peptide 55 = target: T11, GUCY2C_ECD Peptide 55 (human)
T11 peptide: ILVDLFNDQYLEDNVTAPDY
Method: as §1

GUCY2C_ECD Peptide 85 = target: T12, GUCY2C_ECD Peptide 85 (human)
T12 peptide: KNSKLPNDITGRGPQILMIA
Method: as §1

GUCY2C_ECD Peptide 25 = target: T13, GUCY2C_ECD Peptide 25 (human)
T13 peptide: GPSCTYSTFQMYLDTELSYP
Method: as §1

GUCY2C_ECD Peptide 16 = target: T14, GUCY2C_ECD Peptide 16 (human)
T14 peptide: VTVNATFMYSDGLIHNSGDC
Method: as §1

GUCY2C_ECD Peptide 35 = target: T15, GUCY2C_ECD Peptide 35 (human)
T15 peptide: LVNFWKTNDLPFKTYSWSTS
Method: as §1

GUCY2C_ECD Peptide 12 = target: T16, GUCY2C_ECD Peptide 12 (human)
T16 peptide: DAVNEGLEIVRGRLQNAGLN
Method: as §1

GUCY2C_ECD Peptide 86 = target: T17, GUCY2C_ECD Peptide 86 (human)
T17 peptide: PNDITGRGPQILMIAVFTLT
Method: as §1

GUCY2C_ECD Peptide 1 = target: T18, GUCY2C_ECD Peptide 1 (human)
T18 peptide: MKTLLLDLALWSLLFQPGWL
Method: as §1

GUCY2C_ECD Peptide 59 = target: T19, GUCY2C_ECD Peptide 59 (human)
T19 peptide: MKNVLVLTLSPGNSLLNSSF
Method: as §1

GUCY2C_ECD Peptide 69 = target: T20, GUCY2C_ECD Peptide 69 (human)
T20 peptide: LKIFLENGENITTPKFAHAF
Method: as §1

GUCY2C_ECD Peptide 75 = target: T21, GUCY2C_ECD Peptide 75 (human)
T21 peptide: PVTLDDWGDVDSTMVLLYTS
Method: as §1

GUCY2C_ECD Peptide 89 = target: T22, GUCY2C_ECD Peptide 89 (human)
T22 peptide: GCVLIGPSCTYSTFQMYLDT
Method: as §1

GUCY2C_ECD Peptide 28 = target: T23, GUCY2C_ECD Peptide 28 (human)
T23 peptide: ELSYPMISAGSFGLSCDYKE
Method: as §1

GUCY2C_ECD Peptide 3 = target: T24, GUCY2C_ECD Peptide 3 (human)
T24 peptide: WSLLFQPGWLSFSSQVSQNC
Method: as §1

GUCY2C_ECD Peptide 5 = target: T25, GUCY2C_ECD Peptide 5 (human)
T25 peptide: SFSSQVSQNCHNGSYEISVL
Method: as §1

GUCY2C_ECD Peptide 50 = target: T26, GUCY2C_ECD Peptide 50 (human)
T26 peptide: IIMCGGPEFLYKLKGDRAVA
Method: as §1

GUCY2C_ECD Peptide 21 = target: T27, GUCY2C_ECD Peptide 21 (human)
T27 peptide: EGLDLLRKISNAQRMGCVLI
Method: as §1

GUCY2C_ECD Peptide 14 = target: T28, GUCY2C_ECD Peptide 14 (human)
T28 peptide: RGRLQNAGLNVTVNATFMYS
Method: as §1

GUCY2C_ECD Peptide 82 = target: T29, GUCY2C_ECD Peptide 82 (human)
T29 peptide: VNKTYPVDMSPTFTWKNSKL
Method: as §1

GUCY2C_ECD Peptide 32 = target: T30, GUCY2C_ECD Peptide 32 (human)
T30 peptide: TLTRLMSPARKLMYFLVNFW
Method: as §1

GUCY2C_ECD Peptide 70 = target: T31, GUCY2C_ECD Peptide 70 (human)
T31 peptide: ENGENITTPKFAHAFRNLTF
Method: as §1

GUCY2C_ECD Peptide 53 = target: T32, GUCY2C_ECD Peptide 53 (human)
T32 peptide: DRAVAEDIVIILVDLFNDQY
Method: as §1

GUCY2C_ECD Peptide 74 = target: T33, GUCY2C_ECD Peptide 74 (human)
T33 peptide: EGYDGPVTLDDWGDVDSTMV
Method: as §1

GUCY2C_ECD Peptide 36 = target: T34, GUCY2C_ECD Peptide 36 (human)
T34 peptide: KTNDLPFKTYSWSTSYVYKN
Method: as §1

GUCY2C_ECD Peptide 77 = target: T35, GUCY2C_ECD Peptide 77 (human)
T35 peptide: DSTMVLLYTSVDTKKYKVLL
Method: as §1

GUCY2C_ECD Peptide 67 = target: T36, GUCY2C_ECD Peptide 67 (human)
T36 peptide: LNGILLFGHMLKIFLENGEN
Method: as §1

B1: GUCY2C-1608 (bispecific antibody)
chain 1: DIQLTQSPSSLSASVGDRVTITCRASESVDYYGSSLLQWYQQKPGKAPKLLIYAASKLASGVPSRFSGSGSGTDFTLTISSLQPEDFATYYCQQTRKAYTFGQGTKLEIKGGGSGGGGEVQLVESGGGLVQPGGSLRLSCAASGFTFSDYYMTWVRQAPGKGLEWVAFIRNQARGYTSDHNPSVKGRFTISRDNAKNSLYLQMNSLRAEDTAVYYCARDRPSYYVLDYWGQGTTVTVSSGCPPCPAPEAAGAPSVFLFPPKPKDTLMISRTPEVTCVVVDVSHEDPEVKFNWYVDGVEVHNAKTKPREEQYNSTYRVVSVLTVLHQDWLNGKEYKCKVSNKALPAPIEKTISKAKGQPREPQVCTLPPSREEMTKNQVSLWCLVKGFYPSDIAVEWESNGQPENNYKTTPPVLDSDGSFFLYSKLTVDKSRWQQGNVFSCSVMHEALHNHYTQKSLSLSPG
chain 2: DIQMTQSPSSLSASVGDRVTITCTSSQSLFNVRSQKNYLAWYQQKPGKAPKLLIYWASTRESGVPSRFSGSGSGTDFTLTISSLQPEDFATYYCKQSYDLFTFGGGTKVEIKGGGGSGGGGEVQLVESGGGLVQPGGSLRLSCAASGFTFSSYWMHWVRQAPGKGLEWIGEIKPSNELTNVHEKFKDRFTISVDKAKNSAYLQMNSLRAEDTAVYYCTRTITTTEGYWFFDVWGQGTLVTVSSGCPPCPAPEAAGAPSVFLFPPKPKDTLMISRTPEVTCVVVDVSHEDPEVKFNWYVDGVEVHNAKTKPREEQYNSTYRVVSVLTVLHQDWLNGKEYKCKVSNKALPAPIEKTISKAKGQPREPQVYTLPPCREEMTKNQVSLSCAVKGFYPSDIAVEWESNGQPENNYKTTPPVLDSDGSFFLVSKLTVDKSRWQQGNVFSCSVMHEALHNHYTQKSLSLSPG
notes: also called GUCY2c CD3 bispecific
DELFIA TRF (GUCY2C_ECD Peptide 57): 99.8
DELFIA TRF (GUCY2C_ECD Peptide 83): 85.8
DELFIA TRF (GUCY2C_ECD Peptide 87): 102
DELFIA TRF (GUCY2C_ECD Peptide 51): 96.8
DELFIA TRF (GUCY2C_ECD Peptide 44): 90.5
DELFIA TRF (GUCY2C_ECD Peptide 81): 109
DELFIA TRF (GUCY2C_ECD Peptide 80): 1470
DELFIA TRF (GUCY2C_ECD Peptide 10): 105
DELFIA TRF (GUCY2C_ECD Peptide 41): 161
DELFIA TRF (GUCY2C_ECD Peptide 31): 90.2
DELFIA TRF (GUCY2C_ECD Peptide 55): 100
DELFIA TRF (GUCY2C_ECD Peptide 85): 163
DELFIA TRF (GUCY2C_ECD Peptide 25): 131
DELFIA TRF (GUCY2C_ECD Peptide 16): 105
DELFIA TRF (GUCY2C_ECD Peptide 35): 108
DELFIA TRF (GUCY2C_ECD Peptide 12): 259
DELFIA TRF (GUCY2C_ECD Peptide 86): 110
DELFIA TRF (GUCY2C_ECD Peptide 1): 166
DELFIA TRF (GUCY2C_ECD Peptide 59): 135
DELFIA TRF (GUCY2C_ECD Peptide 69): 100
DELFIA TRF (GUCY2C_ECD Peptide 75): 88.2
DELFIA TRF (GUCY2C_ECD Peptide 89): 115
DELFIA TRF (GUCY2C_ECD Peptide 28): 96.8
DELFIA TRF (GUCY2C_ECD Peptide 3): 97.8
DELFIA TRF (GUCY2C_ECD Peptide 5): 109
DELFIA TRF (GUCY2C_ECD Peptide 50): 161
DELFIA TRF (GUCY2C_ECD Peptide 21): 81
DELFIA TRF (GUCY2C_ECD Peptide 14): 97
DELFIA TRF (GUCY2C_ECD Peptide 82): 99.2
DELFIA TRF (GUCY2C_ECD Peptide 32): 83.2
DELFIA TRF (GUCY2C_ECD Peptide 70): 91.8
DELFIA TRF (GUCY2C_ECD Peptide 53): 87.8
DELFIA TRF (GUCY2C_ECD Peptide 74): 100
DELFIA TRF (GUCY2C_ECD Peptide 36): 112
DELFIA TRF (GUCY2C_ECD Peptide 77): 98.2
DELFIA TRF (GUCY2C_ECD Peptide 67): 93.2

From US20230340151A1 (Pfizer, published 2023)
